Source: US20250057881A1 (ROSWELL PARK CANCER INSTITUTE, published 2025)

Target: T1, HLA-A*02:01 (human)
T1 construct: also called HLA-A2; A2
Assay: peptide loaded on Flex-T HLA-A*02:01 monomer by UV exchange; the resulting tetramer stained TCR-transduced T cells
Excerpt: HLA-A2-binding epitope of CLDN6 between CLDN6₁₃₁₋₁₄₀ was predicted using […] database. […] (CLDN6₁₃₂₋₁₄₀) (SEQ ID NO:18) peptide was synthesized by EZBiolab with 82% purity. HLA-A2/peptide monomer was generated with Flex-T HLA-A*02:01 monomer UVX followed by tetramerization using PE-streptavidin according to the manufacturer's instruction (BioLegend). CD8-TCR-or mock-transduced cells were stained with the tetramer followed by anti-CD8 antibody.

TLIPVCWTA (Synthetic peptide, 82% purity) [CLDN6132-140 peptide]: binds.
